{"source": "patent US20130171677A1", "about": "(BOARD OF SUPERVISORS OF THE UNIVERSITY OF LOUISIANA SYSTEM, published 2013)", "proteins": {"B1": {"name": "Bilin lyase CpcS from Thermosynechococcus elongatus BP1 (TeCpcS), His-tagged (enzyme)", "chain": "MCIGMDIRDFFAQSAGRWFSQRTSHHLAFKQTESGKSQLTIELLSVDDPAVIALCQQYDMDPAWAVCGARVSWDGTMEWDNEKHEGSTVLVPIMDQGSRMEGKLLREMGYAEKAPVAGRFSMGSDGALTLITEYETIYSEERLWFASPNLRLRTSILKRFGGFSMASFCSEIRLGVTQPANS", "notes": "also called HT-TeCpcS; CpcS-III; not shown: C-terminal His-tag from the pET22c construct used for crystallization and size-exclusion chromatography"}}, "target": "the molecule itself", "test": "size exclusion chromatography of purified recombinant TeCpcS (complex 53.0 kDa against ~24.0 kDa calculated for HT-TeCpcS)", "protocol": "In order to determine the molecular mass of TeCpcS in its native state, the purified, recombinant TeCpcS was subjected to size exclusion chromatography. The molecular mass of this complex was calculated to be 53.0 kDa, and the calculated molecular mass of HT-TeCpcS is ˜24.0 kDa."}
{"protein": "B1", "values": [{"measurement": "binding result", "value": "binds"}]}
